What all share (experiment): BLI
Series [1] addresses Recombinant histidine-tagged Ewing Sarcoma Breakpoint Region 1 (EWSR1) protein (UniProt Q01844).
The target in a further series is CHIKV nsP2 (Chikungunya virus; strain of the nsP2 …, UniProt Q8JUX6 536-1333).
Another series addresses EWSR1 (UniProt Q01844 1-656).

Chain of CHIKV nsP2 (Q8JUX6 536-1333): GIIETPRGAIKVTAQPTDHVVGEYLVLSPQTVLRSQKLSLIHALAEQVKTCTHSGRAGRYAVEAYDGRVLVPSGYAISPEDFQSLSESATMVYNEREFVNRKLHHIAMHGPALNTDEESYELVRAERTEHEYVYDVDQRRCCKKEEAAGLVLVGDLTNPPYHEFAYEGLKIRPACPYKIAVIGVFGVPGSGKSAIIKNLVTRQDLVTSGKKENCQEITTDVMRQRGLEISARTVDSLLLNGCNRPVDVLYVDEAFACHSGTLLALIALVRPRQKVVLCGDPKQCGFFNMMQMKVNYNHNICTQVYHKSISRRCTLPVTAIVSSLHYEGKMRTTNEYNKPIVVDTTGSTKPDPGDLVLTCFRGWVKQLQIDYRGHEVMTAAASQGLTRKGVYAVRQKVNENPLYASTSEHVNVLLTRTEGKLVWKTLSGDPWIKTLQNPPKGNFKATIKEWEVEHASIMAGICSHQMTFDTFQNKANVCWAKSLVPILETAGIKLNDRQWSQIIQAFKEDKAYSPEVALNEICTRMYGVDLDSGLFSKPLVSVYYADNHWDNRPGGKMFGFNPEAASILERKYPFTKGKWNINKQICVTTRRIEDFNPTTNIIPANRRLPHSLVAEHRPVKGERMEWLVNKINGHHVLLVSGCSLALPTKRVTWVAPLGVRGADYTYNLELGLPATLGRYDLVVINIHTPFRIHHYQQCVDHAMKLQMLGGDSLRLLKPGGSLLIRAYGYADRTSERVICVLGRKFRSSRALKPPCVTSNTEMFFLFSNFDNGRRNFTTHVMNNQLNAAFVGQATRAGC
Chain of Chikungunya virus non-structural protein 2 (CHIKV nsP2), full-length recombinant (Q8JUX6 536-1333): as above
Chain of Recombinant histidine-tagged Ewing Sarcoma Breakpoint Region 1 (EWSR1) protein (Q01844 whole entry): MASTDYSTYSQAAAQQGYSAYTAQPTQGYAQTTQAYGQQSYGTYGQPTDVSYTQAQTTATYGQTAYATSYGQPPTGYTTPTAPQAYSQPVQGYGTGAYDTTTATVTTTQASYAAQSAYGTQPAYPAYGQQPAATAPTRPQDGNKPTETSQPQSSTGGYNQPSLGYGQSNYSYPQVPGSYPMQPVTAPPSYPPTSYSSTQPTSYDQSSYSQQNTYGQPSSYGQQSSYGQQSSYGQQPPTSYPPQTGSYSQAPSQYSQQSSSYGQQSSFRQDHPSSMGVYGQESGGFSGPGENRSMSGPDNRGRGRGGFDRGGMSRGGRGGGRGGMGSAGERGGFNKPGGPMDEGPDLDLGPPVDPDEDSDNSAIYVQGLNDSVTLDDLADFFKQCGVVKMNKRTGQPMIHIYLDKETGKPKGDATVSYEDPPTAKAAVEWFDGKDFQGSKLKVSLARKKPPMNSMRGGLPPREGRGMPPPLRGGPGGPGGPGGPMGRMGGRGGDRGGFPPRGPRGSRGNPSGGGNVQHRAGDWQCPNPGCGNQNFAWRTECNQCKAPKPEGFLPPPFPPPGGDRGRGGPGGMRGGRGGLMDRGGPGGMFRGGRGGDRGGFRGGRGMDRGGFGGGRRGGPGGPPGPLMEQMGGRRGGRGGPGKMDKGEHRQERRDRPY
Chain of EWSR1 (Q01844 whole entry): as above

A word on the Kd: it is the equilibrium constant for the complex coming apart. Take “Chikungunya virus non-structural protein 2 (CHIKV nsP2), full-length recombinant (from UniProt Q8JUX6) (enzyme)”: the Kd in series [1] was 716 nM. CCGAACCCACAGGGACGUAGGAGAUGUUAUUUUGUUUUUAAUAUUUC (ssRNA) [3NCR48]: the Kd in the series with CHIKV nsP2 was determined as 92.9 ± 1.6 nM; with EWSR1 it was 91.4 ± 0.37 nM.
